Measurements as given in patent US20220064316A1 (published 2022).

T1: human BCMA (B-cell maturation antigen) on cells (human, UniProt Q02223 1-184)
T1 sequence (looked up): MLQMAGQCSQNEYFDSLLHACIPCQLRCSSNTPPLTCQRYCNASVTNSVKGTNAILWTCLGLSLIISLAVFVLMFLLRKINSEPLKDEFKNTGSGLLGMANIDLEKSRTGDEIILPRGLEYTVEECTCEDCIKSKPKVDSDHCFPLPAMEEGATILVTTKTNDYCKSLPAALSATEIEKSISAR

T2: BCMA-Fc antigen (R&D Systems) (UniProt Q02223 1-54)
T2 construct: also called BCMA fc fusion protein (R&D Systems, cat #193-BC-050); recombinant BCMA-Fc; not shown: Fc portion of the bought fusion protein
T2 sequence (looked up): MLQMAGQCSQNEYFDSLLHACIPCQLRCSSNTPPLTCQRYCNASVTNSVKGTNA

B1: BCMA-4 CAR (139103) (other)
chain: QVQLVESGGGLVQPGRSLRLSCAASGFTFSNYAMSWVRQAPGKGLGWVSGISRSGENTYYADSVKGRFTISRDNSKNTLYLQMNSLRDEDTAVYYCARSPAHYYGGMDVWGQGTTVTVSSASGGGGSGGRASGGGGSDIVLTQSPGTLSLSPGERATLSCRASQSISSSFLAWYQQKPGQAPRLLIYGASRRATGIPDRFSGSGSGTDFTLTISRLEPEDSAVYYCQQYHSSPSWTFGQGTKLEIKTTTPAPRPPTPAPTIASQPLSLRPEACRPAAGGAVHTRGLDFACDIYIWAPLAGTCGVLLLSLVITLYCKRGRKKLLYIFKQPFMRPVQTTQEEDGCSCRFPEEEEGGCELRVKFSRSADAPAYKQGQNQLYNELNLGRREEYDVLDKRRGRDPEMGGKPRRKNPQEGLYNELQKDKMAEAYSEIGMKGERRRGKGHDGLYQGLSTATKDTYDALHMQALPPR
notes: also called B4; JF32-78IB
B2: BCMA-7 CAR (139106) (other)
chain: EVQLVETGGGLVQPGGSLRLSCAVSGFALSNHGMSWVRRAPGKGLEWVSGIVYSGSTYYAASVKGRFTISRDNSRNTLYLQMNSLRPEDTAIYYCSAHGGESDVWGQGTTVTVSSASGGGGSGGRASGGGGSEIVMTQSPATLSVSPGERATLSCRASQSVSSKLAWYQQKPGQAPRLLMYGASIRATGIPDRFSGSGSGTEFTLTISSLEPEDFAVYYCQQYGSSSWTFGQGTKVEIKTTTPAPRPPTPAPTIASQPLSLRPEACRPAAGGAVHTRGLDFACDIYIWAPLAGTCGVLLLSLVITLYCKRGRKKLLYIFKQPFMRPVQTTQEEDGCSCRFPEEEEGGCELRVKFSRSADAPAYKQGQNQLYNELNLGRREEYDVLDKRRGRDPEMGGKPRRKNPQEGLYNELQKDKMAEAYSEIGMKGERRRGKGHDGLYQGLSTATKDTYDALHMQALPPR
notes: also called QR91-12ZA
B3: BCMA-5 CAR (139104) (other)
chain: EVQLLETGGGLVQPGGSLRLSCAVSGFALSNHGMSWVRRAPGKGLEWVSGIVYSGSTYYAASVKGRFTISRDNSRNTLYLQMNSLRPEDTAIYYCSAHGGESDVWGQGTTVTVSSASGGGGSGGRASGGGGSEIVLTQSPATLSVSPGESATLSCRASQSVSSNLAWYQQKPGQAPRLLIYGASTRASGIPDRFSGSGSGTDFTLTISSLQAEDVAVYYCQQYGSSLTFGGGTKVEIKTTTPAPRPPTPAPTIASQPLSLRPEACRPAAGGAVHTRGLDFACDIYIWAPLAGTCGVLLLSLVITLYCKRGRKKLLYIFKQPFMRPVQTTQEEDGCSCRFPEEEEGGCELRVKFSRSADAPAYKQGQNQLYNELNLGRREEYDVLDKRRGRDPEMGGKPRRKNPQEGLYNELQKDKMAEAYSEIGMKGERRRGKGHDGLYQGLSTATKDTYDALHMQALPPR
notes: also called AR99-08FA
B4: BCMA-2 CAR (139101) (other)
chain: QVQLQESGGGLVQPGGSLRLSCAASGFTFSSDAMTWVRQAPGKGLEWVSVISGSGGTTYYADSVKGRFTISRDNSKNTLYLQMNSLRAEDTAVYYCAKLDSSGYYYARGPRYWGQGTLVTVSSASGGGGSGGRASGGGGSDIQLTQSPSSLSASVGDRVTITCRASQSISSYLNWYQQKPGKAPKLLIYGASTLASGVPARFSGSGSGTHFTLTINSLQSEDSATYYCQQSYKRASFGQGTKVEIKTTTPAPRPPTPAPTIASQPLSLRPEACRPAAGGAVHTRGLDFACDIYIWAPLAGTCGVLLLSLVITLYCKRGRKKLLYIFKQPFMRPVQTTQEEDGCSCRFPEEEEGGCELRVKFSRSADAPAYKQGQNQLYNELNLGRREEYDVLDKRRGRDPEMGGKPRRKNPQEGLYNELQKDKMAEAYSEIGMKGERRRGKGHDGLYQGLSTATKDTYDALHMQALPPR
notes: also called UR96-08PA
B5: BCMA-11 CAR (139110) (other)
chain: QVQLVQSGGGLVKPGGSLRLSCAASGFTFSDYYMSWIRQAPGKGLEWVSYISSSGNTIYYADSVKGRFTISRDNAKNSLYLQMNSLRAEDTAVYYCARSTMVREDYWGQGTLVTVSSASGGGGSGGRASGGGGSDIVLTQSPLSLPVTLGQPASISCKSSESLVHNSGKTYLNWFHQRPGQSPRRLIYEVSNRDSGVPDRFTGSGSGTDFTLKISRVEAEDVGVYYCMQGTHWPGTFGQGTKLEIKTTTPAPRPPTPAPTIASQPLSLRPEACRPAAGGAVHTRGLDFACDIYIWAPLAGTCGVLLLSLVITLYCKRGRKKLLYIFKQPFMRPVQTTQEEDGCSCRFPEEEEGGCELRVKFSRSADAPAYKQGQNQLYNELNLGRREEYDVLDKRRGRDPEMGGKPRRKNPQEGLYNELQKDKMAEAYSEIGMKGERRRGKGHDGLYQGLSTATKDTYDALHMQALPPR
notes: also called UG65-93FB
B6: BCMA-3 CAR (139102) (other)
chain: QVQLVQSGAEVKKPGASVKVSCKASGYTFSNYGITWVRQAPGQGLEWMGWISAYNGNTNYAQKFQGRVTMTRNTSISTAYMELSSLRSEDTAVYYCARGPYYYYMDVWGKGTMVTVSSASGGGGSGGRASGGGGSEIVMTQSPLSLPVTPGEPASISCRSSQSLLYSNGYNYVDWYLQKPGQSPQLLIYLGSNRASGVPDRFSGSGSGTDFKLQISRVEAEDVGIYYCMQGRQFPYSFGQGTKVEIKTTTPAPRPPTPAPTIASQPLSLRPEACRPAAGGAVHTRGLDFACDIYIWAPLAGTCGVLLLSLVITLYCKRGRKKLLYIFKQPFMRPVQTTQEEDGCSCRFPEEEEGGCELRVKFSRSADAPAYKQGQNQLYNELNLGRREEYDVLDKRRGRDPEMGGKPRRKNPQEGLYNELQKDKMAEAYSEIGMKGERRRGKGHDGLYQGLSTATKDTYDALHMQALPPR
notes: Chimeric antigen receptor; also called KR98-03KA
B7: BCMA-4NP tool CAR (other)
chain: QVQLVQSGAEVKKPGSSVKVSCKASGGTFSNYWMHWVRQAPGQGLEWMGATYRGHSDTYYNQKFKGRVTITADKSTSTAYMELSSLRSEDTAVYYCARGAIYNGYDVLDNWGQGTLVTVSSGGGGSGGGGSGGGGSGGGGSDIQMTQSPSSLSASVGDRVTITCSASQDISNYLNWYQQKPGKAPKLLIYYTSNLHSGVPSRFSGSGSGTDFTLTISSLQPEDFATYYCQQYRKLPWTFGQGTKLEIKR

target: T1, human BCMA (B-cell maturation antigen) …; experiment: cell-based or functional assay

Binder | JNL binding assay, ratio to K562; K562-BCMA [ratio] | JNL binding assay, ratio to K562; NCI-H929 [ratio] | JNL binding assay, ratio to K562; RPMI 8226 [ratio] | Proliferation CD3, ratio to no target; K562-BCMA [ratio] | Proliferation CD3, ratio to no target; KMS11-luc [ratio] | Proliferation CD3, ratio to no target; NCI-H929 [ratio] | Proliferation CD3, ratio to no target; RPMI 8226 [ratio] | Proliferation CD4, ratio to no target; K562-BCMA [ratio] | Proliferation CD4, ratio to no target; KMS11-luc [ratio] | Proliferation CD4, ratio to no target; NCI-H929 [ratio]
B1 | 4.47 | 3.31 | 6.25 | 7.37 | 8.63 | 8.64 | 8.14 | 9.21 | 8.6 | 9.86
B2 | 2.55 | 2.36 | 2.77 | 1.72 | 1.71 | 1.8 | 1.62 | 2.17 | 1.96 | 2.23
B3 | 2.34 | 2.34 | 2.4 | 1.62 | 1.61 | 1.72 | 1.73 | 2.19 | 1.9 | 2.23

same assay, conditions: not given

Binder | Proliferation CD4, ratio to no target; RPMI 8226 [ratio] | Proliferation CD8, ratio to no target; K562-BCMA [ratio] | Proliferation CD8, ratio to no target; KMS11-luc [ratio] | Proliferation CD8, ratio to no target; NCI-H929 [ratio] | Proliferation CD8, ratio to no target; RPMI 8226 [ratio]
B1 | 10.1 | 5.66 | 8.74 | 7.42 | 6.19
B2 | 1.91 | 1.08 | 1.35 | 1.18 | 1.19
B3 | 2.15 | 0.99 | 1.27 | 1.11 | 1.25

target: T2, BCMA-Fc antigen (R&D Systems); experiment: flow cytometry; BCMA-Fc staining of CAR-transduced JNL cells
Protocol: Jurkat-NFAT-luciferase (JNL) cells transduced with BCMA CAR constructs were evaluated for activation in response to BCMA-expressing target cell lines. Small-scale viral supernatant samples were generated in HEK293T cells for transduction of JNL cells. On Day 3 following transduction, BCMA CAR-transduced JNL cells were incubated with target cells at an effector-to-target (E:T) ratio of 6:1. Target cell lines were: K562-BCMA (engineered to stably express BCMA), K562 (parental line), and BCMA positive multiple myeloma cell lines, NCI-H929 and RPMI 8226. JNL activation was measured using Bright-Glo substrate (Promega) on Day 4. CAR expression on transduced JNL was assessed on Day 7 with BCMA-Fc antigen and Biotin-Protein L reagent (Table 21).

Binder | % CAR+ (BCMA-Fc detection) [%]
B4 | 32
B1 | 49.5
B2 | 30.4
B5 | 42.7
B6 | 0
B7 | 28.3
B3 | 28.9
